Experimental data published in patent publication US20220249633A1.

What follows are binders tested against HLA-A*24 (human) (assay: UV-exchange ELISA, exchange yield grade).

First: NYGVLHVTF [… (SEQ ID NO: 359)]
Second: QYSIISNVF [… (SEQ ID NO: 349)]
The peptide exchange yield of the first is higher: over 75% for the first, 50 to 75% for the second.

VFSPDGHLF [… (SEQ ID NO: 360)] and NYSPGLVSLIL [… (SEQ ID NO: 281)] fall in the same range of peptide exchange yield: 50 to 75% for the first, 50 to 75% for the second.

Compared with VYPDTVALTF [… (SEQ ID NO: 288)], KYQYVLNEF [… (SEQ ID NO: 299)] is higher in peptide exchange yield: 20 to 49% for the first, 50 to 75% for the second.

First: IFHEVPLKF [… (SEQ ID NO: 351)]
Second: NYMPGQLTI [… (SEQ ID NO: 356)]
The peptide exchange yield of the first is lower: 50 to 75% for the first, over 75% for the second.

VYAEVNSL [VYAEVNSL (SEQ ID NO: 347)] and VYNEQIRDLL [… (SEQ ID NO: 354)] fall in the same range of peptide exchange yield: 50 to 75% for the first, 50 to 75% for the second.

First: SYQVIFQHF [… (SEQ ID NO: 296)]
Second: NYLGGTSTI [… (SEQ ID NO: 343)]
The peptide exchange yield of the first is higher: over 75% for the first, 50 to 75% for the second.

VFDTSIAQLF [… (SEQ ID NO: 317)] and TYADIGGLDNQI [… (SEQ ID NO: 361)] fall in the same range of peptide exchange yield: 50 to 75% for the first, 50 to 75% for the second.

First: KQLDIANYELF [… (SEQ ID NO: 274)]
Second: LYSVIKEDF [… (SEQ ID NO: 303)]
The peptide exchange yield of the first is higher: over 75% for the first, 50 to 75% for the second.

First: SYGTILSHI [… (SEQ ID NO: 286)]
Second: TFDGHGVFF [… (SEQ ID NO: 308)]
The peptide exchange yield of the first is higher: over 75% for the first, 50 to 75% for the second.

VYVGDALLHAI [… (SEQ ID NO: 285)] and DYLKDPVTI [… (SEQ ID NO: 284)] fall in the same range of peptide exchange yield: 50 to 75% for the first, 50 to 75% for the second.

First: IYGEKLQFIF [… (SEQ ID NO: 273)]
Second: KYGDFKLLEF [… (SEQ ID NO: 290)]
The peptide exchange yield of the first is lower: 50 to 75% for the first, over 75% for the second.

VYPHFSTTNLI [… (SEQ ID NO: 293)] and KYGTLDVTF [… (SEQ ID NO: 275)] cannot be ordered by peptide exchange yield: over 75% for the first, over 75% for the second.

First: SFLNIEKTEILF [… (SEQ ID NO: 267)]
Second: AYKSEVVYF [… (SEQ ID NO: 298)]
The peptide exchange yield of the first is lower: 20 to 49% for the first, over 75% for the second.

First: FFHEGQYVF [… (SEQ ID NO: 289)]
Second: VWLPASVLF [… (SEQ ID NO: 279)]
The peptide exchange yield of the first is higher: over 75% for the first, 50 to 75% for the second.

First: KYYRQTLLF [… (SEQ ID NO: 309)]
Second: IYNPNLLTASKF [… (SEQ ID NO: 287)]
The peptide exchange yield of the first is lower: 20 to 49% for the first, 50 to 75% for the second.

First: KFDDVTMLF [… (SEQ ID NO: 301)]
Second: RFPVQGTVTF [… (SEQ ID NO: 294)]
The peptide exchange yield of the first is higher: over 75% for the first, 50 to 75% for the second.

IYVTGGHLF [… (SEQ ID NO: 355)] and SYLVIHERI [… (SEQ ID NO: 295)] fall in the same range of peptide exchange yield: 50 to 75% for the first, 50 to 75% for the second.

KYTDWTEFL [… (SEQ ID NO: 266)] and GYAFTLPLF [… (SEQ ID NO: 307)] fall in the same range of peptide exchange yield: 50 to 75% for the first, 50 to 75% for the second.

Compared with NYENKQYLF [… (SEQ ID NO: 305)], YYLGSGRETF [… (SEQ ID NO: 291)] is lower in peptide exchange yield: over 75% for the first, 50 to 75% for the second.

QYGGDLTNTF [… (SEQ ID NO: 352)] and EYNSDLHQF [… (SEQ ID NO: 344)] fall in the same range of peptide exchange yield: 50 to 75% for the first, 50 to 75% for the second.

FYTFPFQQL [… (SEQ ID NO: 277)] and LYLPVHYGF [… (SEQ ID NO: 302)] fall in the same range of peptide exchange yield: 50 to 75% for the first, 50 to 75% for the second.

YYSEVPVKL [… (SEQ ID NO: 358)] and QYPYLQAFF [… (SEQ ID NO: 269)] fall in the same range of peptide exchange yield: 50 to 75% for the first, 50 to 75% for the second.

First: TYPSQLPSL [… (SEQ ID NO: 300)]
Second: VYNYAEQTL [… (SEQ ID NO: 362)]
The peptide exchange yield of the first is higher: 50 to 75% for the first, 20 to 49% for the second.

First: EYNSDLHQFF [… (SEQ ID NO: 345)]
Second: RYVFPLPYL [… (SEQ ID NO: 272)]
The peptide exchange yield of the first is lower: 50 to 75% for the first, over 75% for the second.

First: FYPQIINTF [… (SEQ ID NO: 292)]
Second: SYAELGTTI [… (SEQ ID NO: 363)]
The peptide exchange yield of the first is higher: over 75% for the first, 20 to 49% for the second.

Compared with TYIDTRTVF [… (SEQ ID NO: 297)], NYLVDPVTI [… (SEQ ID NO: 282)] is lower in peptide exchange yield: over 75% for the first, 50 to 75% for the second.

First: EYLQNLNHI [… (SEQ ID NO: 311)]
Second: KYGNFIDKL [… (SEQ ID NO: 350)]
The peptide exchange yield of the first is higher: over 75% for the first, 50 to 75% for the second.

TYGKIDLGF [… (SEQ ID NO: 353)] and IYAPTLLVF [… (SEQ ID NO: 310)] fall in the same range of peptide exchange yield: 50 to 75% for the first, 50 to 75% for the second.

TYSNSAFQYF [… (SEQ ID NO: 318)] and RYFKGDYSI [… (SEQ ID NO: 314)] fall in the same range of peptide exchange yield: 50 to 75% for the first, 50 to 75% for the second.

Compared with SYTSVLSRL [… (SEQ ID NO: 312)], RFLMKSYSF [… (SEQ ID NO: 271)] is higher in peptide exchange yield: 50 to 75% for the first, over 75% for the second.

VYPAEQPQI [… (SEQ ID NO: 306)] and FYIPHVPVSF [… (SEQ ID NO: 315)] fall in the same range of peptide exchange yield: 50 to 75% for the first, 50 to 75% for the second.

Compared with QYLDVLHAL [… (SEQ ID NO: 276)], IYLEHTESI [… (SEQ ID NO: 348)] is lower in peptide exchange yield: over 75% for the first, 50 to 75% for the second.

SYLTQHQRI [… (SEQ ID NO: 341)] and EYQEIFQQL [… (SEQ ID NO: 283)] fall in the same range of peptide exchange yield: 50 to 75% for the first, 50 to 75% for the second.

First: KYTHFIQSF [… (SEQ ID NO: 313)]
Second: EYNEVANLF [… (SEQ ID NO: 304)]
The peptide exchange yield of the first is higher: over 75% for the first, 50 to 75% for the second.

YYSQESKVLYL [… (SEQ ID NO: 270)] and NYAFLHRTL [… (SEQ ID NO: 342)] fall in the same range of peptide exchange yield: 50 to 75% for the first, 50 to 75% for the second.

First: TYNPNLQDKL [… (SEQ ID NO: 280)]
Second: IFITKALQI [… (SEQ ID NO: 268)]
The peptide exchange yield of the first is higher: over 75% for the first, 20 to 49% for the second.

QFITSTNTF [… (SEQ ID NO: 357)] and KYSDVKNLI [… (SEQ ID NO: 319)] cannot be ordered by peptide exchange yield: over 75% for the first, over 75% for the second.

VYFEGSDFKF [… (SEQ ID NO: 316)] showed a peptide exchange yield of 50 to 75%.
